From PMC7195466, “A common allosteric mechanism regulates homeostatic inactivation of auxin and gibberellin” (Nature Communications, 2020)

Experiments:
[1] = molecular target: Oryza sativa dioxygenase for auxin oxidation (OsDAO) (rice (Oryza sativa)) (UniProt Q7XKU5)
[2] = substrate: C=C1C[C@]23C[C@H]1CC[C@H]2[C@@]12CC[C@H](O)[C@@](C)(C(=O)O1)[C@H]2[C@@H]3C(=O)O; assay: GC-SIM-MS of GA34; type: biochemical, Oryza sativa; conditions: multimer forms measured separately (monomer, dimer, tetramer); same
Description: GC-SIM-MS of GA34 on OsGA2ox3 (GA 2-oxidase 3) | The […]/[…]-tetramer affected both the Km and the Vmax values

[3] = substrate: C=C1C[C@]23C[C@H]1CC[C@H]2[C@@]12CC[C@H](O)[C@@](C)(C(=O)O1)[C@H]2[C@@H]3C(=O)O; assay: GC-SIM-MS of GA34; type: biochemical, Oryza sativa; conditions: multimer forms measured separately; Methods print Cys187 instead of C186; same
Description: GC-SIM-MS of GA34 on OsGA2ox3 (GA 2-oxidase 3) | whereas the […]/[…] monomer affected only the Km

B1: Oryza sativa dioxygenase for auxin oxidation (OsDAO) (enzyme)
chain: MVEIPAIDLRLAGGGGGAEETARLRDACARLGCFRVSGHGVPPGLQAEMKAAVRALFDLPDDAKRRNADIIPGSGYVPPGTANPLYEAFGLCDAAAPADVDAFCARLDAPPHVRETVKAYAERMHSLIVDVAGKVAASLGLHGASFQDWPCQFRMNRYNYTQDSVGSPGVQVHTDSGFLTVLQEDECVGGLEVLDPAAGEFVPVDPLPGSFVVNVGDVGQAWSNGRLHNVKHRVQCVAAVPRVSIAMFLLAPKDDTVSAPGELVDGEHPRRYREFKYDDYRRLRLSTGERAGEALARLAA
Vmax of the dimer against the monomer (forms separated by gel filtration) [1]: 22 fold

B2: OsGA2ox3 (GA 2-oxidase 3) (Oryza sativa Japonica Group; F100A/R97A) (protein)
chain: MVVLAGPPAVDHIPLLRSPDPGDVFSGVPVVDLGSPGAARAVVDACERYGFFKVVNHGVATDTMDKAESEAVRFFSQTQPDKDRSGPAYPFGYGSKAIGANGDMGWLEYLLLALDDASLADACTVPSCAVFRAALNEYISGVRKVAVRVMEAMSEGLGIAQADALSALVTAEGSDQVFRVNHYPPCRALQGLGCSVTGFGEHTDPQLVSVLRSNGTSGLQIALRDGQWVSVPSDRDSFFVNVGDSLQVLTNGRFKSVKHRVVANSLKSRVSFIYFGGPPLAQRIAPLPQLLGEGEQSLYKEFTWDEYKKAAYKSRLGDNRLAQFEKK
notes: full-length coding region in pGEX6P1, GST tag cut off with PreScission protease, E. coli Rosetta (DE3) pLysS; monomer, homotetramer with GA4
Km [2]: 0.52 ± 0.10 (tetramer) μM

B3: OsGA2ox3 (GA 2-oxidase 3) (Oryza sativa Japonica Group; C186A/W106A) (protein)
chain: MVVLAGPPAVDHIPLLRSPDPGDVFSGVPVVDLGSPGAARAVVDACERYGFFKVVNHGVATDTMDKAESEAVRFFSQTQPDKDRSGPAYPFGYGSKRIGFNGDMGALEYLLLALDDASLADACTVPSCAVFRAALNEYISGVRKVAVRVMEAMSEGLGIAQADALSALVTAEGSDQVFRVNHYPPARALQGLGCSVTGFGEHTDPQLVSVLRSNGTSGLQIALRDGQWVSVPSDRDSFFVNVGDSLQVLTNGRFKSVKHRVVANSLKSRVSFIYFGGPPLAQRIAPLPQLLGEGEQSLYKEFTWDEYKKAAYKSRLGDNRLAQFEKK
notes: as for B2
Km [3]: 5.41 ± 0.96 (monomer) μM
